Test [1] deals with T1, recombinant human BACE1 (rhBACE1) (human, UniProt P56817 22-457, limits assumed). Kind of test: spot phage ELISA, signal on BACE1 over signal on BSA. As for the experimental part:
After 4 rounds of binding selection, individual phage clones were analyzed in a high-throughput spot phage ELISA (Sidhu, S. S. et al. (2000) Methods Enzymol 328: 333-63) using plate-immobilized BACE1 as the target. The binding signal of the same phage particle to BSA was detected as non-specific binding noise. Clones with phage binding signal to target over 0.5 and signal/noise ratio>3 were considered to be positive clones and were subjected to DNA sequence analysis.
A general note: ELISA stands for enzyme-linked immunosorbent assay.

For test [2], the target named is T1, recombinant human BACE1 (rhBACE1). Kind of test: spot phage ELISA, plate-immobilized BACE1 against BSA.
Test [3] has the same target. Kind of test: cell-based or functional assay.
For test [4] the target is unchanged. As to the kind of experiment: FP competition binding; 12 nM rhBACE1, competitor probe 5-TAMRA-BACE020. As for the experimental part: BACE1 binding assays were carried out in a final volume of 10 μL per well in black 384-well microplates (Proxiplate-Plus; Perkin Elmer, Waltham, Mass.). […] The reaction was permitted to proceed towards equilibrium for 2 h at ambient temperature prior to fluorescence polarization measurement using Envision (Perkin Elmer). The parallel and perpendicular fluorescent emissions measured in each well at 595 nm (excitation 531 nm polarized light) were used to determine the milli-polarization level (mP) using the following formula: mP=1000*(S−G*P)/(S+G*P) where S=parallel emission, P=perpendicular emission and G=0.65.
The affinities of BACE1 peptide ligands were measured using the abovementioned competition binding FP assay for determining IC₅₀ values with serially diluted peptides. A Caliper assay was used to measure the inhibition of BACE1 enzymatic activity by peptide ligands.

Positions of bridges follow the written chain, without caps; N, C: chain ends. No end group written: not given here. Some results are limits rather than exact numbers.

T1 sequence (P56817 22-457 limits assumed): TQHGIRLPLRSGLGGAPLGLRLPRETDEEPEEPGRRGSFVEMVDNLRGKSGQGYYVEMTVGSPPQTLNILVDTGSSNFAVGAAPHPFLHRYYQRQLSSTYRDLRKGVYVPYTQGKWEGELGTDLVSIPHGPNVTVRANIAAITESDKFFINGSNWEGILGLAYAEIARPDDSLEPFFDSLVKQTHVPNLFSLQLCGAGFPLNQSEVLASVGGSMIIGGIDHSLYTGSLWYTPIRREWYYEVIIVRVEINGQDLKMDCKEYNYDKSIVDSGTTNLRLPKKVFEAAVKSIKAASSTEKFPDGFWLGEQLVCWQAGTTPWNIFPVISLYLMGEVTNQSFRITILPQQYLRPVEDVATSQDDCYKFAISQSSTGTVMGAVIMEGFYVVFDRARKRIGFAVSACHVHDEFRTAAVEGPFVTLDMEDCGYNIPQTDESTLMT

B1: phage-displayed peptide BACE018 (SEQ ID NO 14) (peptide)
chain: KEESIYCRLMGLGCG
notes: not shown: M13 major coat protein; peptide fused to its N-terminus
For the molecule B1, in test [1], the signal/noise ratio was greater than 20. The “fold improvement of signal/noise ratio over parent BACE017” value (shortened to “fold improvement of signal/noise ratio”) in test [2] is greater than 5 fold.
As to Ac-PEESLYCRLLALGCG-NH2 (disulfide 7-14 (inferred), also called BACE-21) [BACE021], in test [3], the “Caliper (MCE) BACE1 activity assay IC50” value amounted to 17 nM and the “HTRF BACE1 activity assay IC50” value is 22 nM. In test [4], the IC50 (as a rule, the concentration needed to halve the response being measured) worked out at 25 nM.

B2: phage-displayed peptide BACE019 (SEQ ID NO 15) (peptide)
chain: NELSPYCRLMGLGCD
notes: as for B1
Take B2: the signal/noise ratio in test [1] was greater than 20. Besides, the “fold improvement of signal/noise ratio” value in test [2] is greater than 5 fold.

B3: phage-displayed peptide BACE020 (SEQ ID NO 16) (peptide)
chain: NEESMYCRLLGIGCG
modifications: disulfide 7-14; also: displayed on M13 phage as N-terminal fusion to the coat protein
notes: as for B1
As to B3, the signal/noise ratio in test [1] was greater than 20. Moreover, in test [2], the “fold improvement of signal/noise ratio” value was greater than 5 fold.

B4: phage-displayed peptide BACE021 (SEQ ID NO 17) (peptide)
chain: PEESLYCRLLALGCG
notes: as for B1
As to B4, the signal/noise ratio in test [1] was greater than 20. The “fold improvement of signal/noise ratio” value in test [2] is greater than 5 fold.

B5: BACE020 (peptide)
peptide: Ac-NEESMYCRLLGIGCG-NH2
modifications: disulfide 7-14
SMILES: CC[C@H](C)[C@@H]1NC(=O)CNC(=O)[C@H](CC(C)C)NC(=O)[C@H](CC(C)C)NC(=O)[C@H](CCCNC(=N)N)NC(=O)[C@@H](NC(=O)[C@H](Cc2ccc(O)cc2)NC(=O)[C@H](CCSC)NC(=O)[C@H](CO)NC(=O)[C@H](CCC(=O)O)NC(=O)[C@H](CCC(=O)O)NC(=O)[C@H](CC(N)=O)NC(C)=O)CSSC[C@@H](C(=O)NCC(N)=O)NC(=O)CNC1=O
notes: also called BACE20; BACE-20
On to B5, for which, in test [3], the “Caliper (MCE) BACE1 activity assay IC50” value was 11 nM and the “HTRF BACE1 activity assay IC50” value is 12 nM. Moreover, the half-maximal inhibitory concentration (IC50) in test [4] was 11 nM.
